Data as given in PMC12784346, “Paratope mapping of tilvestamab, an anti-AXL function-blocking antibody, using high-throughput bacterial expression of secreted scFv-osmY fusion proteins” (Bioscience Reports, 2025).

Biological target: T1, AXL Ig1 domain fused to human Fc (Homo sapiens, UniProt P30530)
T1 construct: AXL receptor tyrosine kinase, human, Ig1 domain of the extracellular domain; Construct limits and production are in the Supplementary Information; also called AXL Ig1-Fc; AXL-Ig1-Fc
Experiment: BLI; Octet RED96; His-tagged scFv-osmY captured on Ni-NTA tips from undiluted bacterial supernatant (600 s); AXL Ig1 domain Fc 5.6 ug/ml in kinetic buffer (0.02% Tween 20, 0.05% sodium azide, 0.1% BSA in PBS) as analyte; rat Axl-Fc as control; traces scored by eye (normal, fast, very fast, weak, weak fast, none)
Conditions: one partner purified

binding result | Binder
binds | tilvestamab scFv-osmY P238A (scFv, V domains shown, VH of tilvestamab, as the VH of m1; linker; VL of tilvestamab, as the VL of m1; numbers count on: the scFv-osmY fusion protein; source: E. coli T7 expression strain, secreted, culture supernatant used directly; not shown: His6, C-terminal, kept) VH: EVQLVESGGGLVQPGGSLRLSCAASGYSFTDFYINWVRQAPGKGLEWVARIFPGGDNTYYNEKFKGRFTLSADTSKSTAYLQMNSLRAEDTAVYYCARRGLYYAMDYWGQGTLVTVSS VL: DIQMTQSPSSLSASVGDRVTITCRSSQSLVHSNGIPYLHWYQQKPGKAPKLLIYRVSNRFSGVPSRFSGSGSGTDFTLTISSLQPEDFATYYCSQGTHVPATFGQGTKVEIK
binds | tilvestamab scFv-osmY F33T (scFv, V domains shown, VH of tilvestamab, as the VH of m1; numbers count on: the scFv-osmY fusion protein; linker; VL of tilvestamab, as the VL of m1; source: E. coli T7 expression strain, secreted, culture supernatant used directly; not shown: His6, C-terminal, kept) VH: EVQLVESGGGLVQPGGSLRLSCAASGYSFTDTYINWVRQAPGKGLEWVARIFPGGDNTYYNEKFKGRFTLSADTSKSTAYLQMNSLRAEDTAVYYCARRGLYYAMDYWGQGTLVTVSS VL: DIQMTQSPSSLSASVGDRVTITCRSSQSLVHSNGIPYLHWYQQKPGKAPKLLIYRVSNRFSGVPSRFSGSGSGTDFTLTISSLQPEDFATYYCSQGTHVPPTFGQGTKVEIK
